Laboratory results: patent publication US20040001848

Key:
ovalbumin = ovalbumin (UniProt P01012)
β-casein = target: T1, β-casein (UniProt P02666)
T1 sequence: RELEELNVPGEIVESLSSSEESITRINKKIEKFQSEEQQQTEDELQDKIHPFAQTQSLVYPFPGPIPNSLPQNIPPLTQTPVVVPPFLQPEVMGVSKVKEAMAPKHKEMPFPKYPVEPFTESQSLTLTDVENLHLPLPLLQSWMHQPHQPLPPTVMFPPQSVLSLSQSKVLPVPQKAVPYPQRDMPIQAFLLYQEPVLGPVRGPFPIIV

[1] = test system: recombinant serum albumin
[2] = target: bovine serum albumin (BSA) (UniProt P02769)
[3] = test system: myelin basic protein (MBP)

Chain of ovalbumin (P01012 2-386): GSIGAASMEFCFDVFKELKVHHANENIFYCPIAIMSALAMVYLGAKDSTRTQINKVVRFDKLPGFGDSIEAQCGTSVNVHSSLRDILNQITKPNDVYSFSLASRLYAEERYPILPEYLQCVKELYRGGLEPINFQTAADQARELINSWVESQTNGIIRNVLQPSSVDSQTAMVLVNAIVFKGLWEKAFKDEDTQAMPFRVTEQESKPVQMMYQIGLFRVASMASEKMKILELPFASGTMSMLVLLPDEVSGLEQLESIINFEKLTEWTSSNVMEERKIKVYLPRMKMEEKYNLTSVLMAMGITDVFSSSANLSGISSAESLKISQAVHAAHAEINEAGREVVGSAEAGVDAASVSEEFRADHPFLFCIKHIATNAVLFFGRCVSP
Chain of bovine serum albumin (BSA) (P02769 25-607): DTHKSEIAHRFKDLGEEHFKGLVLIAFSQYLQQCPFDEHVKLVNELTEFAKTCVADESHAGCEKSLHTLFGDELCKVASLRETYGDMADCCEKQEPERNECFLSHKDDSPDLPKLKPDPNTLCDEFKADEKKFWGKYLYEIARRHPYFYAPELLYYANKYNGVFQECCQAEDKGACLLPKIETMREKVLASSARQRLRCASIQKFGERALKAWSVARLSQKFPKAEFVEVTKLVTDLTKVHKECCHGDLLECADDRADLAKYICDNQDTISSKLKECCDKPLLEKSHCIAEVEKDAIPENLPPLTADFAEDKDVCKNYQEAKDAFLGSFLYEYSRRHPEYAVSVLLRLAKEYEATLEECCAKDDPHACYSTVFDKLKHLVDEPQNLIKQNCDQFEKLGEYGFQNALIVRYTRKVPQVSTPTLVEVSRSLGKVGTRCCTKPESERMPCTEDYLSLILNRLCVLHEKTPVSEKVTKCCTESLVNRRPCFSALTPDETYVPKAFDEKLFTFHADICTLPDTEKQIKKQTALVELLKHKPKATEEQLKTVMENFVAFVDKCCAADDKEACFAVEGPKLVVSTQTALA

Substance: recombinant 6×-His-TGase fusion protein of Streptomyces mobaraensis ATCC 29032
- cross-linking of native protein (histone H3 protein): there was no cross-linking
- cross-linking of native protein on SDS-PAGE (histone H3 protein): complete and partial cross-linking was both observed for native histine H3 protein under the condition tested
- cross-linking of BSA5 peptide on SDS-PAGE (BSA5 peptide): increased amount of recombinant SM TGase corresponding to an increase in cross-linked (CL) BSA5 peptide
- cross-linking of native protein (ovalbumin): there was no cross-linking
- cross-linking of β-amyloid (1-42) peptide on SDS-PAGE, 1 to 3 hours (β-amyloid peptide (1-42)): can be cross-linked by the recombinant transglutaminase as shown as a smear of a mixture of cross-linked peptides
- cross-linking of a mixture of β-casein and glucose oxidase on SDS-PAGE (β-casein): both protein species can be cross-linked by the purified recombinant SM TGase
- cross-linking of β-casein on SDS-PAGE (β-casein): the cross-linked (CL) β-casein migrated as a smear on the SDS-PAGE gel indicating a mixture of high molecular weight polymers of different length
- cross-linking of β-casein on SDS-PAGE, 0 mM DTT (β-casein): had no cross-linking activity on β-casein
- cross-linking of β-casein on SDS-PAGE, about 2 mM DTT (β-casein): β-casein run as a mixture of cross-linked polymer and monomer
- cross-linking of β-casein on SDS-PAGE, about 10 mM DTT (β-casein): cross-linking of all detectable β-casein substrates in the reaction
- cross-linking of recombinant serum albumin on SDS-PAGE [1]: revealed a mixture of very high molecular weight polymers of different length
- cross-linking of native protein [2]: there was no cross-linking
- cross-linking of native protein [3]: there was no cross-linking
